Data taken from US6544504B1, “Combined use of interleukin 10 and methotrexate for immuno-modulatory therapy” (Schering Corporation, priority 1999, dated 2003).
Entries after “also recorded” stand apart in the source; their conditions may differ.

Tests used:
Format in all cases: in vivo, human
[1] = test system: patients with active rheumatoid arthritis; assay: Rheumatoid arthritis Disease Activity / ACR response in the IL-10 plus MTX study
Protocol: (§1) A multinational, multicenter, sequentially randomized, double-blind, placebo-controlled, rising multiple-dose study of IL-10 plus methotrexate (MTX) treatment was completed in patients with active rheumatoid arthritis.
(§2) Fifty patients were to receive one of five dosing regimens of IL-10 (SC) (1 μg/kg daily, 4 μg/kg daily, 8 μg/kg three times a week [TIW], 8 μg/kg daily and 20 μg/kg TIW) or placebo for 28 days, in addition to stable dosing with MTX (Treatment Phase). The patients were followed for 8 weeks after the end of IL-10 dosing (Follow-up Phase). Patients received MTX at therapeutic doses for at least 4 months prior to study entry. The dose of MTX was 12.5-25 mg/week (oral, subcutaneous or intramuscular) and remained constant throughout the study (Screening, Treatment and Follow-up Phases).
(§3) Patients were sequentially enrolled into the study in dose cohorts starting with the lowest dose of IL-10. Safety was assessed for each dose level prior to progressing to the next higher dose. Ten patients were assessed at each of the IL-10 dose cohorts: 8 received IL-10 and 2 received placebo (4:1). There was no replacement of patients.
(§4) The primary objective was to evaluate, in a dose-escalating manner, the safety and tolerance of IL-10 (SC) therapy given daily or TIW plus MTX (oral/intramuscular/SC) over a 28 day period to patients with active rheumatoid arthritis. The secondary objectives were to evaluate the effect of IL-10 on measures of rheumatoid arthritis Disease Activity, and to determine changes in the circulating levels of soluble p55 and p75 TNF receptors and IL-1 receptor antagonist. Protocol-defined responders were defined as those patients with at least 20% ACR criteria, i.e. at least 20% improvement in number of tender joints, number of swollen joints and in at least 3 of 5 RA Disease Activity measures (i.e. subject's assessment of pain, disease activity or physical function and physician's global assessment of disease activity.
Fifty patients were enrolled and sequentially randomized to receive one of the five dosing regimens of IL-10 (SC) (1 μg/kg daily, 4 μg/kg daily, 8 μg/kg TIW, 8 μg/kg daily and 20 μg/kg TIW) or placebo which formed the intent-to-treat population (ITT). Mean duration of treatment was at least 26 days for each of the treatment groups. The treatment groups were similar in demographic characteristics except for slight differences in age. Baseline characteristics of RA Disease Activity were similar for treatment groups.

[2] = test system: patients with active rheumatoid arthritis; assay: Safety and tolerance study of IL-10 plus stable MTX in active rheumatoid arthritis
Protocol: as §1, §2, §3
as §4, with “activity. […]” for “activity.”

[3] = test system: TNFα, IL-1β, soluble TNF p55 and p75 receptors, IL-1 receptor antagonist; assay: Ex-vivo induced proinflammatory cytokines and circulating soluble TNF receptors / IL-1 receptor antagonist; conditions: nearly all IL-10 treatment groups compared with placebo, plus MTX
Protocol: as §2
The primary objective was to evaluate, in a dose-escalating manner, the safety and tolerance of IL-10 (SC) therapy given daily or TIW plus MTX (oral/intramuscular/SC) over a 28 day period to patients with active rheumatoid arthritis. The secondary objectives were to evaluate the effect of IL-10 on measures of rheumatoid arthritis Disease Activity, and to determine changes in the circulating levels of soluble p55 and p75 TNF receptors and IL-1 receptor antagonist. […]

[4] = each IL-10 dose group plus MTX versus placebo plus MTX

## IL-10: a cytokine produced by T lymphocytes; protein with sequence substantially identical to mature IL-10; most preferably recombinant human IL-10
[1]; IL-10 in combination with MTX, greatest for 8 μg/kg TIW, 8 μg/kg daily and 20 μg/kg TIW
  effects on rheumatoid arthritis Disease Activity (conclusion): may have beneficial effects
[1]; after 28 days of dosing versus baseline, ITT population, compared with placebo plus MTX
  protocol-defined response (percentage of responders): trend toward a greater percentage of responders
[1]; after 28 days, compared with placebo plus MTX
  mean change from baseline for individual clinical measures of rheumatoid arthritis disease activity: generally showing a greater percentage of responders than in placebo group
[1]; [4]
  percent of patients having a 20% improvement in disease activity (ACR 20): higher for each of the IL-10 treatment groups than for the placebo group
  percent of patients having a 50% improvement in disease activity (ACR 50): higher for each of the IL-10 treatment groups than for the placebo group
[2]; IL-10 SC 1-20 μg/kg daily or TIW for 28 days plus stable MTX 12.5-25 mg/week
  safety and tolerance: generally well tolerated; also recorded: safe and well tolerated
[2]; IL-10 SC for 28 days plus stable MTX
  most frequently reported adverse events: headache, injection site reaction, nausea, musculoskeletal pain, with no dose-response relationship seen
[2]; IL-10 SC for 28 days plus stable MTX, any time during the study
  anti-dsDNA or anti IL-10 antibodies: No anti-dsDNA or anti IL-10 antibodies were present
[3]
  circulating serum levels of soluble TNF p55 and TNF p75 receptors and IL-1 receptor antagonists: trend towards increased circulating serum levels
  production of ex-vivo induced proinflammatory cytokines (TNFα and IL-1β): trend towards decreased production
